Where a chain is given by its changes, count along the chain named. Names may count otherwise. “And” between values parts separate entries of the source, which are not always exact repeats. Equal entries are not always repeated.
Experiments:
[1] = molecular target: T1, armadillo domain of HSF2BP, from aa 122 to aa 334 (ARM) (human, UniProt O75031 122-334); assay: ITC; HSF2BP or ARM in the cell at 10-20 uM, BRCA2 fragment in the syringe at 40-100 uM; 293 K; 25 mM Tris pH 7.5, 250 mM NaCl, 5 mM beta-mercaptoethanol; two replicates; settings: both partners purified
T1 construct: Free ARM is a dimer (SEC-MALS); four ARM with two F15X in the complex; A selenomethionine-labelled form was used for the deposited crystal structure; also called HSF2BP ARM; H3 (recombinant); source: E. coli BL21 DE3 Rosetta2, purified (HisTrap, TEV cleavage, SEC)
T1 sequence (looked up): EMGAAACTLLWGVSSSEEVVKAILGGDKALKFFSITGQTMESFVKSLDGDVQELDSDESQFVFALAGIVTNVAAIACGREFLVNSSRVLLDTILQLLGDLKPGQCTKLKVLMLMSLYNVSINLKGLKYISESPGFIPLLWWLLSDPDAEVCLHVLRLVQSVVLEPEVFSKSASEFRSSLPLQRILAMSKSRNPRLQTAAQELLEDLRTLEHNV

BRCA2 (Flag-F9) = assay: Co-immunoprecipitation of GFP-HSF2BP variants with Flag-BRCA2 F9; type: cell-based, human; settings: transient HEK293T / stable HeLa, anti-GFP beads, immunoblot
Source text: Expression constructs for producing point mutation and truncation variants of HS2BP and BRCA2 in human cells were engineered as described before[16] in the PiggyBac vectors by Gibson assembly. For transient expression into HEK293T cells plasmid DNA was transfected using calcium precipitation method or PEI transfection. For stable integration into HeLa cells, PiggyBac expression vectors were co-lipofected together with PiggyBac transposase plasmid (hyPBase[45]) with Lipofectamine 3000 (Thermo Fisher).
Cells were washed twice in ice-cold PBS and lysed in situ in NETT buffer (100 mM NaCl, 50 mM Tris pH 7.5, 5 mM EDTA pH 8.0, 0.5% Triton-X100) supplemented immediately before use with protease inhibitor cocktail (Roche) and 0.4 mg/ml Pefabloc (Roche) (NETT++); 450 µl NETT++ buffer was used per 145 mm dish ES cells, 1 ml for HeLa and HEK293T. After 5–10 min, cells were scraped off and collected in 1.5 ml microcentrifuge tubes; lysis was continued for additional 20–30 min on ice, then mixtures were centrifuged (15 min, 4 °C, 14,000 × g) and the supernatant (input) was added to washed anti-GFP beads (Chromotek). Beads and lysates were incubated 2–4 h at 4 °C while rotating, washed three times in NETT++ buffer and bound proteins were eluted by boiling in 2x Sample buffer. Immunoblotting was performed following standard procedures with the following antibodies: anti-GFP mAb (Roche, #11814460001), anti-GFP pAb (Abcam #ab290 and Invitrogen #A11122), anti-RAD51[46], anti-BRCA2 mAb Ab1 OP-95 (Millipore #OP95), anti-BRCA2 (Abcam #27976), anti-Flag (M2 antibody, Sigma, F3165 and F1804). For quantitative immunoblotting fluorescently labeled secondary antibodies were used: anti-mouse CF680 (Sigma #SAB460199), anti-rabbit CF770 (Sigma #SAB460215); membranes were scanned using Odyssey CLx imaging system (LI-COR).

HSF2BP FL = molecular target: T2, HSF2BP FL (Homo sapiens, UniProt O75031); assay: ITC of BRCA2 fragments with full-length HSF2BP; type: binding; settings: discussion statement, read-out: affinity of BRCA2 for HSF2BP
T2 construct: Human full-length HSF2BP WT and R200T were expressed; 6xHis-TEV (N, cleaved yes); made in house; host or cells: E. coli BL21 DE3 Rosetta2
T2 sequence (O75031 1-334): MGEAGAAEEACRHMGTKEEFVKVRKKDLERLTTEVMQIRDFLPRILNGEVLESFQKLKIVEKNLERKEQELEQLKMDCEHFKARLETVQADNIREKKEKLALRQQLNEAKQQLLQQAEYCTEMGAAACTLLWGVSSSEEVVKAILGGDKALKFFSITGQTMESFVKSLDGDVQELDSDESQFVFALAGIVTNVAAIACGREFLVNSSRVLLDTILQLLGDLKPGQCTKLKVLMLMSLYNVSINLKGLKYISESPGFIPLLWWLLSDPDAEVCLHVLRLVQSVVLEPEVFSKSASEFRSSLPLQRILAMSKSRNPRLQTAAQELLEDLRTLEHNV
Source text: Human full-length HSF2BP WT and R200T were expressed using a pETM11 (6xHis-TEV) expression vector in E. coli BL21 DE3 Rosetta2 cells, and purified as previously reported (Brandsma et al., Cell Rep 2019). The armadillo domain of HSF2BP, from aa 122 to aa 334, which we will further name ARM, was similarly expressed using a pETM11 (6xHis-TEV) expression vector in BL21 DE3 Rosetta2 cells and purified as full-length HSF2BP.
Human BRCA2 fragment F0 was expressed using a pET-22b expression vector as a fusion protein comprising BRCA2 from aa 2213 to aa 2342 (including mutation C2332T to avoid oxidation problems), a TEV site, a GB1 and 6xHis tag, in E. coli BL21 DE3 Star cells. The BRCA2 gene was optimized for expression in bacteria and synthesized by Genscript. In addition, smaller BRCA2 fragments were produced using the same strategy: FNMR and F15X corresponding to aa 2252 to aa 2342 and aa 2291 to aa 2343, respectively. The smallest fragment F15X∆12, from aa 2312 to aa 2342, was synthesized by Genecust.
ITC experiments were performed using a high-precision VP-ITC instrument (GE Healthcare) at 293 K. To characterize the interactions between HSF2BP and BRCA2 fragments (WT, variants), the proteins were dialyzed against 25 mM Tris pH 7.5, 250 mM NaCl, 5 mM β-mercaptoethanol. The HSF2BP (or ARM domain) was in the sample cell at 10–20 μM and was titrated by BRCA2 fragments at 40–100 μM, using 10 μL injections with 210 s intervals between each injection. The first 2 μL injection was ignored in the final data analysis. The integration of the peaks corresponding to each injection. the correction for the baseline and the fit were performed using the Origin 7.0 software provided by the manufacturer, to obtain the stoichiometry (N), dissociation constant (Kd), and enthalpy of complex formation (ΔH) for each interaction. Two replicates were performed for each experiment.

B1: Human BRCA2 fragment F15X (N2291-Q2342) (domain or fragment, UniProt P51587 2291-2342, looked up)
chain: NEFDRIIENQEKSLKASKSTPDGTIKDRRLFMHHVSLEPITTVPFRTTKERQ
notes: BRCA2, human, residues 2291-2342 (methods: aa 2291 to aa 2343); T2332 in the construct; The methods give aa 2291 to aa 2343, results and legend N2291-Q2342; A selenomethionine-labelled form was used for the deposited crystal structure; also called BRCA2 F15X; BRCA2 peptide; source: E. coli BL21 DE3 Star, purified (HisTrap, TEV cleavage, SEC); not shown: GB1, C-terminal, cleaved; His6, C-terminal, …
- Kd [1]: 10 nM and 9.4 nM
- dH [1]: -10.2 kcal/mol and -9.2 kcal/mol
- stoichiometry N [1]: 0.33 and 0.4

B2: Human BRCA2 fragment FNMR (S2252-Q2342) (domain or fragment, UniProt P51587 2252-2342, looked up)
chain: SLFTCPENEEMVLSNSRIGKRRGEPLILVGEPSIKRNLLNEFDRIIENQEKSLKASKSTPDGTIKDRRLFMHHVSLEPITTVPFRTTKERQ
notes: BRCA2, human, residues 2252-2342; produced by the same strategy as F0 (C2332T); C2332T is stated for F0 and 'our construct'; FNMR was made 'using the same strategy'; source: E. coli BL21 DE3 Star, purified (HisTrap, TEV cleavage, SEC); not shown: GB1, C-terminal, cleaved; His6, C-terminal, cleaved
- Kd [1]: 7.8 nM and 13 nM
- dH [1]: -9.6 kcal/mol and -9.4 kcal/mol
- stoichiometry N [1]: 0.47 and 0.51

B3: N243H: GFP-HSF2BP point mutant (protein)
chain: T2 sequence (O75031 1-334) with N243H
modifications: left off: GFP, end not stated, kept
notes: GFP-HSF2BP point mutant
- binding to BRCA2 (co-precipitation) (BRCA2 (Flag-F9)): totally abolished binding
- binding to BRCA2 (co-precipitation) (BRCA2 (Flag-F9); listed as N243): failed to co-precipitate

B4: R277E: GFP-HSF2BP point mutant (protein)
chain: T2 sequence (O75031 1-334) with R277E
modifications: left off: GFP, end not stated, kept
notes: GFP-HSF2BP point mutant
- binding to BRCA2 (co-precipitation) (BRCA2 (Flag-F9)): strongly decreased binding

B5: R200E: GFP-HSF2BP point mutant (protein)
chain: T2 sequence (O75031 1-334) with R200E
modifications: left off: GFP, end not stated, kept
notes: GFP-HSF2BP point mutant
- binding to BRCA2 (co-precipitation) (BRCA2 (Flag-F9)): totally abolished binding

B6: R200C: GFP-HSF2BP point mutant (protein)
chain: T2 sequence (O75031 1-334) with R200C
modifications: left off: GFP, end not stated, kept
notes: GFP-HSF2BP point mutant
- binding to BRCA2 (co-precipitation) (BRCA2 (Flag-F9)): totally abolished binding

B7: E201A: GFP-HSF2BP point mutant (protein)
chain: T2 sequence (O75031 1-334) with E201A
modifications: left off: GFP, end not stated, kept
notes: GFP-HSF2BP point mutant
- binding to BRCA2 (co-precipitation) (BRCA2 (Flag-F9)): did not impact BRCA2 binding
- binding to BRCA2 (co-precipitation) (BRCA2 (Flag-F9); listed as E201): do not decrease binding

B8: N239K: GFP-HSF2BP point mutant (protein)
chain: T2 sequence (O75031 1-334) with N239K
modifications: left off: GFP, end not stated, kept
notes: GFP-HSF2BP point mutant
- binding to BRCA2 (co-precipitation) (BRCA2 (Flag-F9)): totally abolished binding
- binding to BRCA2 (co-precipitation) (BRCA2 (Flag-F9); listed as N239): failed to co-precipitate

B9: R200H: GFP-HSF2BP point mutant (protein)
chain: T2 sequence (O75031 1-334) with R200H
modifications: left off: GFP, end not stated, kept
notes: GFP-HSF2BP point mutant
- binding to BRCA2 (co-precipitation) (BRCA2 (Flag-F9)): totally abolished binding

B10: G199D: GFP-HSF2BP point mutant (protein)
chain: T2 sequence (O75031 1-334) with G199D
modifications: left off: GFP, end not stated, kept
notes: GFP-HSF2BP point mutant
- binding to BRCA2 (co-precipitation) (BRCA2 (Flag-F9)): abolished binding
- binding to BRCA2 (co-precipitation) (BRCA2 (Flag-F9); listed as G199): failed to co-precipitate

B11: K245T: GFP-HSF2BP point mutant (protein)
chain: T2 sequence (O75031 1-334) with K245T
modifications: left off: GFP, end not stated, kept
notes: GFP-HSF2BP point mutant
- binding to BRCA2 (co-precipitation) (BRCA2 (Flag-F9)): did not impact BRCA2 binding
- binding to BRCA2 (co-precipitation) (BRCA2 (Flag-F9); listed as K245): do not decrease binding

B12: M235T: GFP-HSF2BP point mutant (protein)
chain: T2 sequence (O75031 1-334) with M235T
modifications: left off: GFP, end not stated, kept
notes: GFP-HSF2BP point mutant
- binding to BRCA2 (co-precipitation) (BRCA2 (Flag-F9)): still weakly bound to BRCA2

B13: N192R: GFP-HSF2BP point mutant (protein)
chain: T2 sequence (O75031 1-334) with N192R
modifications: left off: GFP, end not stated, kept
notes: GFP-HSF2BP point mutant
- binding to BRCA2 (co-precipitation) (BRCA2 (Flag-F9)): totally abolished binding
- binding to BRCA2 (co-precipitation) (BRCA2 (Flag-F9); listed as N192): failed to co-precipitate

B14: Y238A: GFP-HSF2BP point mutant (protein)
chain: T2 sequence (O75031 1-334) with Y238A
modifications: left off: GFP, end not stated, kept
notes: GFP-HSF2BP point mutant
- binding to BRCA2 (co-precipitation) (BRCA2 (Flag-F9)): totally abolished binding
- binding to BRCA2 (co-precipitation) (BRCA2 (Flag-F9); listed as Y238): failed to co-precipitate

B15: BRCA2: BRCA2 (fragment F0 measured by ITC) (protein)
chain: STYSKDSENYFETEAVEIAKAFMEDDELTDSKLPSHATHSLFTCPENEEMVLSNSRIGKRRGEPLILVGEPSIKRNLLNEFDRIIENQEKSLKASKSTPDGTIKDRRLFMHHVSLEPITTVPFRTTKERQ
- Kd (HSF2BP FL): 1 nM
